Laboratory results: publication PMC11417767

Target: FAIM2 (Fas-apoptotic inhibitory molecule 2) (UniProt Q8K097)
Experiment: FAIM2 immunoprecipitation, αA-crystallin immunoblot
Details: reference: wild type; sites T148

binding against the reference: weaker
Substance: αA-crystallin (HSPB4/CRYAA) (from UniProt P02489) T148A
